Target: T1, FN14 on transiently transfected 293-F cells (human) (UniProt Q9NP84)
T1 sequence (looked up): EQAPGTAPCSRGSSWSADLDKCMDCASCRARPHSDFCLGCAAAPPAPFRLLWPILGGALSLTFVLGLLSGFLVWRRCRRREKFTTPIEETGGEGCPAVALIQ
Experiment: apparent affinity of the recombinant chimeric mAb, saturation binding

B1: anti-FN14 mAb FS24 (after 7 additional selections, recombinant chimeric mAb) (antibody, from another filing, V domains shown)
VH: AVTLDESGGGLQTPGGALSLVCKASGFTFSSYDMAWVRQEPGKGLEWVAGIDYDGSGRRYAPAVKGRATISRDNGQSTLRLQLNNLRAEDTGTYYCTKCGYTGGCDYEGGYIDAWGHGTEVIVSS
VL: ALTQPSSVSANPGETVKITCSGGGSSYYAGSYYYGWYQQKAPGSAPVTLIYYNNKRPSDIPSRFSGSLSGSTNTLTITGVRADDEAVYFCGSIDNSGAAFGAGTTLTVLG
B1 was tested, and the Kd was 0.26 nM.

Source: patent US20130261012A1
